# Reference: IntAct's records for PubMed 23706739
# B1: Proteasome activator complex subunit 4 (Homo sapiens), Q14997 (parent)
# chain: MEPAERAGVGEPPEPGGRPEPGPRGFVPQKEIVYNKLLPYAERLDAESDLQLAQIKCNLGRAVQLQELWPGGLFWTRKLSTYIRLYGRKFSKEDHVLFIKLLYELVSIPKLEISMMQGFARLLINLLKKKELLSRADLELPWRPLYDMVERILYSKTEHLGLNWFPNSVENILKTLVKSCRPYFPADATAEMLEEWRPLMCPFDVTMQKAITYFEIFLPTSLPPELHHKGFKLWFDELIGLWVSVQNLPQWEGQLVNLFARLATDNIGYIDWDPYVPKIFTRILRSLNLPVGSSQVLVPRFLTNAYDIGHAVIWITAMMGGPSKLVQKHLAGLFNSITSFYHPSNNGRWLNKLMKLLQRLPNSVVRRLHRERYKKPSWLTPVPDSHKLTDQDVTDFVQCIIQPVLLAMFSKTGSLEAAQALQNLALMRPELVIPPVLERTYPALETLTEPHQLTATLSCVIGVARSLVSGGRWFPEGPTHMLPLLMRALPGVDPNDFSKCMITFQFIATFSTLVPLVDCSSVLQERNDLTEVERELCSATAEFEDFVLQFMDRCFGLIESSTLEQTREETETEKMTHLESLVELGLSSTFSTILTQCSKEIFMVALQKVFNFSTSHIFETRVAGRMVADMCRAAVKCCPEESLKLFVPHCCSVITQLTMNDDVLNDEELDKELLWNLQLLSEITRVDGRKLLLYREQLVKILQRTLHLTCKQGYTLSCNLLHHLLRSTTLIYPTEYCSVPGGFDKPPSEYFPIKDWGKPGDLWNLGIQWHVPSSEEVSFAFYLLDSFLQPELVKLQHCGDGKLEMSRDDILQSLTIVHNCLIGSGNLLPPLKGEPVTNLVPSMVSLEETKLYTGLEYDLSRENHREVIATVIRKLLNHILDNSEDDTKSLFLIIKIIGDLLQFQGSHKHEFDSRWKSFNLVKKSMENRLHGKKQHIRALLIDRVMLQHELRTLTVEGCEYKKIHQDMIRDLLRLSTSSYSQVRNKAQQTFFAALGAYNFCCRDIIPLVLEFLRPDRQGVTQQQFKGALYCLLGNHSGVCLANLHDWDCIVQTWPAIVSSGLSQAMSLEKPSIVRLFDDLAEKIHRQYETIGLDFTIPKSCVEIAELLQQSKNPSINQILLSPEKIKEGIKRQQEKNADALRNYENLVDTLLDGVEQRNLPWKFEHIGIGLLSLLLRDDRVLPLRAIRFFVENLNHDAIVVRKMAISAVAGILKQLKRTHKKLTINPCEISGCPKPTQIIAGDRPDNHWLHYDSKTIPRTKKEWESSCFVEKTHWGYYTWPKNMVVYAGVEEQPKLGRSREDMTEAEQIIFDHFSDPKFVEQLITFLSLEDRKGKDKFNPRRFCLFKGIFRNFDDAFLPVLKPHLEHLVADSHESTQRCVAEIIAGLIRGSKHWTFEKVEKLWELLCPLLRTALSNITVETYNDWGACIATSCESRDPRKLHWLFELLLESPLSGEGGSFVDACRLYVLQGGLAQQEWRVPELLHRLLKYLEPKLTQVYKNVRERIGSVLTYIFMIDVSLPNTTPTISPHVPEFTARILEKLKPLMDVDEEIQNHVMEENGIGEEDERTQGIKLLKTILKWLMASAGRSFSTAVTEQLQLLPLFFKIAPVENDNSYDELKRDAKLCLSLMSQGLLYPHQVPLVLQVLKQTARSSSWHARYTVLTYLQTMVFYNLFIFLNNEDAVKDIRWLVISLLEDEQLEVREMAATTLSGLLQCNFLTMDSPMQIHFEQLCKTKLPKKRKRDPGSVGDTIPSAELVKRHAGVLGLGACVLSSPYDVPTWMPQLLMNLSAHLNDPQPIEMTVKKTLSNFRRTHHDNWQEHKQQFTDDQLLVLTDLLVSPCYYA
# Variants of: B1
# Settings: with h4_human H4C16, P62805
row,Variant,effect of a mutation on the interaction
1,N1716T;F1717S,disrupting interaction strength
